Test results taken from US20120022129.

Biological target: flag-tagged WT HDAC2 (1-488)
Sequence (chain, as listed by the source): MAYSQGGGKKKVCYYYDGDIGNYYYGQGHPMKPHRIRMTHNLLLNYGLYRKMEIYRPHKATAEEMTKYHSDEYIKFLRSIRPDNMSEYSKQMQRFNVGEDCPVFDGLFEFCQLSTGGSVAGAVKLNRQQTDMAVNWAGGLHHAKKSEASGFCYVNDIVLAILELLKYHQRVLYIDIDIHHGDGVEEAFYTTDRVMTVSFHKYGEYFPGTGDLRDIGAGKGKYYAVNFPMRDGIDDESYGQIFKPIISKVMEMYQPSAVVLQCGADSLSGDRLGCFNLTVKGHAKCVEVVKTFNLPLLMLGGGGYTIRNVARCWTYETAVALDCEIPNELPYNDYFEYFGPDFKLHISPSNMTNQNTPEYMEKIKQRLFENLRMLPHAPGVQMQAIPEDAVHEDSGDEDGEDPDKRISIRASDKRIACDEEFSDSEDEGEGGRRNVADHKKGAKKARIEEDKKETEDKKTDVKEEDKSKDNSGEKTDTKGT

B1: protein kinase CK2 catalytic subunit CK2α (protein)
chain: MSGPVPSRARVYTDVNTHRPREYWDYESHVVEWGNQDDYQLVRKLGRGKYSEVFEAINITNNEKVVVKILKPVKKKKIKREIKILENLRGGPNIITLADIVKDPVSRTPALVFEHVNNTDFKQLYQTLTDYDIRFYMYEILKALDYCHSMGIMHRDVKPHNVMIDHEHRKLRLIDWGLAEFYHPGQEYNVRVASRYFKGPELLVDYQMYDYSLDMWSLGCMLASMIFRKEPFFHGHDNYDQLVRIAKVLGTEDLYDYIDKYNIELDPRFNDILGRHSRKRWERFVHSENQHLVSPEALDFLDKLLRYDHQSRLTAREAMEHPYFYTVVKDQARMGSSSMPGGSTPVSSANMMSGISSVPTPSPLGPLAGSPVIAAANPLGMPVPAAAGAQQ
HDAC2 serine phosphorylation (phospho-serine western blot of immunoprecipitated flag-tagged HDAC2): HDAC2 phosphorylation seemed to correlate with the level of CK2α binding
